Patent publication US20260242487A1 (HANGZHOU ZHONGMEIHUADONG PHARMACEUTICAL, published 2026)

Assays:
[1] = target: T1, hFGFR2b-Fc (Kactus, Catalog #FGR-HM2BB) (human, UniProt P21802-3 22-378, biotinylated in Example 9 (printed as biotin-hFGFR2b-Fc; site not stated)); test: competition ELISA: inhibition of FGF7-his binding to coated hFGFR2b-Fc
T1 construct: Bought reagent; also called biotin-hFGFR2b-Fc; not shown: Fc part
Procedure: (§1) Inhibition of binding of FGF7 and FGF10 to FGFR2b by anti-FGFR2b antibodies was measured by ELISA assay. Each step of each assay was performed by room temperature incubation with the appropriate reagent for 1 hour, except the initial plate coating step was done overnight at 4° C. Between each step, plates were washed 3 times in PBS containing 0.05% Tween 20.
(§2) To determine the abilities of the anti-FGFR2b mAbs to block ligand binding to FGFR2b, plates were coated with 1 μg/ml hFGFR2b-Fc (Kactus, Catalog #FGR-HM2BB), and followed by blocking with 2% BSA. The plates were next incubated with human FGF7-his (20 nM, Sino Biological, Catalog #10210-H07E) or biotin-FGF10 (5 nM, Kactus, Catalog #FGF-HE010B) in the presence of serial diluted (1:5) anti-FGFR2b mAbs, and the bound ligands were detected with HRP-anti 6×His tag (Abcam, Catalog #ab1187) or Streptavidin-Protein HRP (Thermo, Catalog #21126) and TMB substrate (Cell Signaling, Catalog #7004P6).

[2] = target: T1, hFGFR2b-Fc (Kactus, Catalog #FGR-HM2BB); test: competition ELISA: inhibition of biotin-FGF10 binding to coated hFGFR2b-Fc
Procedure: as §1, §2

[3] = target: T2, human FGFR2b expressed on cells (hFGFR2b-expressing CHOK1 cells); Ba/F3 cells expressing full-length human … (human, UniProt P21802-3 22-822); test: flow cytometry on CHOK1 cells expressing hFGFR2b, detection with APC anti-human IgG Fc
T2 construct: whole, on cells; also called FGFR2IIIb; CHOK1-FGFR2IIIb transfectants
T2 sequence (P21802 other isoform, or with tags, fused parts or gaps): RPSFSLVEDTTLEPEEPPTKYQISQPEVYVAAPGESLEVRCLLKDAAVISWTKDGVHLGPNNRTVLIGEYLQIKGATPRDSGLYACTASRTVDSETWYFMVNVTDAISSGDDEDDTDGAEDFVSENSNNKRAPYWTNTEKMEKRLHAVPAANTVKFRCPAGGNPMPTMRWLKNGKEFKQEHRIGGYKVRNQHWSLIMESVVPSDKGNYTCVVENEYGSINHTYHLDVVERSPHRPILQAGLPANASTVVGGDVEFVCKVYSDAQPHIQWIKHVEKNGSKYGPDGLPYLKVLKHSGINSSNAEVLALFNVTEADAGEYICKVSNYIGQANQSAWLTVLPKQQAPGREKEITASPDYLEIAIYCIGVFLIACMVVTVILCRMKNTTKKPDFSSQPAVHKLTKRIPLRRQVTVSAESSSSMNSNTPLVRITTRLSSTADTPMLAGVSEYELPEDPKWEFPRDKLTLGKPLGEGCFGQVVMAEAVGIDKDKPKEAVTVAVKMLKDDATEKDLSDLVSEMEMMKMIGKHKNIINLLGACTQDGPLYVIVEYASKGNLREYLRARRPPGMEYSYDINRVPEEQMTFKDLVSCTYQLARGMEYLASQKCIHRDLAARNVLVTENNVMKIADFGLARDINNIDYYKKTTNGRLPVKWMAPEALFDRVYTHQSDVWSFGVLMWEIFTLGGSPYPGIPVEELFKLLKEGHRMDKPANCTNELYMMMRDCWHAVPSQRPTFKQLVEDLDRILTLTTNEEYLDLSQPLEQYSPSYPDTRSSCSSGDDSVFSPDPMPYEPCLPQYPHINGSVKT
Procedure: Appropriate cells (1×10⁵) were washed twice in FACS buffer (PBS+2% BSA), resuspended in 100 μl of FACS buffer containing serial diluted (1:5) anti-FGFR2b mAbs, and incubated at 4° C. for 1 hour. Cells were then washed twice in FACS buffer and the bound antibodies were detected by incubation with APC anti-human IgG Fc (Biolegend, Catalog #410712) for 1 hour at 4° C. After washing twice in FACS buffer, cells were analyzed on a Cytoflex (Beckmann Coulter). Aprutumab was also tested as a positive control which can bind to both FGFR2b and FGFR2c.

FGFR2b-his = target: T3, FGFR2b-his (human, UniProt P21802-3 22-378); test: surface plasmon resonance (Octet, Sartorius): antibody immobilized by amine coupling, FGFR2b-his flowed over
T3 construct: also called human FGFR2b antigen; human FGFR2b (FGFR2b-his); not shown: his tag
T3 sequence (P21802 other isoform, or with tags, fused parts or gaps): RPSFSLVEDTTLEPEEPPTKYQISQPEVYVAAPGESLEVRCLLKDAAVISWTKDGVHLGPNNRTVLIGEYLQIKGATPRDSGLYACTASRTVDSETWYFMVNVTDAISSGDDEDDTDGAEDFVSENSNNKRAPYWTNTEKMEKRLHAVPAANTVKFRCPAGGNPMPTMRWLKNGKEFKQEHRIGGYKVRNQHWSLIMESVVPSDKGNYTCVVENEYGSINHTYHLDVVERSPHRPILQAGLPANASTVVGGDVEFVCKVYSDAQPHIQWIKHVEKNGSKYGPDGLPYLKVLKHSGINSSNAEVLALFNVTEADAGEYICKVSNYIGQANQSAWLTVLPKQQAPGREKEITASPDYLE
Procedure: The binding affinities of anti-FGFR2b mAbs for human FGFR2b (FGFR2b-his) was measured using surface plasmon resonance (Octet, Sartorius). Anti-FGFR2b mAbs were immobilized on a dextran chip using the amine coupling kit and 100 mM ethylenediamine in 100 mM sodium borate, pH 8.0, was used as the blocking reagent. FGFR2b-his proteins diluted in HEPES-buffered saline with 0.05% surfactant P20 running buffer were flowed over the immobilized antibody.

B1: HC18 (antibody, human IgG1, kappa, V domains shown)
VH: EVQLQQSGTVLARPGASVKMSCKTSGYTFTSYWMHWVKQRPGQGLEWIGSIYPENSDTSYNQKFKGKAKLTAVTSASTAYMDLSSLTNEDSAVYYCSIYHGYDGDYWGQGTTLTVSS
VL: QIVLTQSPAIMSASPGEKVTITCSASSSVSYMYWFQQKPGTSPKLWIYSTSNLASGVPARFSGSGSGTSYSLTISRMEAEDAATYYCQQRSSYPYTFGGGTKLEIKR
notes: also called mAb HC18; the antibody of the present disclosure
With B1 the IC50 [1] was 3.82 nM, the IC50 [2] was 4.99 nM and the “EC50 (read off the curve)” value [3] was ~0.4 nM. The Kd (FGFR2b-his) was 26.7 nM, the koff (FGFR2b-his) was 0.005 s⁻¹ and the kon (FGFR2b-his) was 187000 M⁻¹ s⁻¹.
